This is an account of results in EP2385124A2 (Arbor Vita Corporation, dated 2011).

No end group written: not given here. *: point of attachment. Biotin = O=C1N[C@H]2[C@H](CS[C@H]2CCCCC(=O)*)N1

Experiment [1] concerns the target T1, GST-PSD95 PDZ domains 1-3 fusion protein (human, UniProt P78352 58-395).
T1 construct: domain: PDZ domains 1-3 (of 3); AA numbers count on the GenBank entry; not shown: glutathione-S transferase (GST) as encoded by vector pGEX-3X (Pharmacia)
Put plainly: A/G plate assay (TABLE 2).

Experiment [2] deals with T2, GST-KIAA0561 PDZ domain fusion protein (UniProt O60307 948-1038).
T2 construct: domain: PDZ domain 1 (of 1); AA numbers count on the GenBank entry; also called K561; not shown: glutathione-S transferase (GST) as encoded by vector pGEX-3X (Pharmacia)
T2 sequence: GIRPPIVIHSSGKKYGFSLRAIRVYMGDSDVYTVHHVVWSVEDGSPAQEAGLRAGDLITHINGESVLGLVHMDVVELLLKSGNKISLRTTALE
Briefly: A/G plate assay (TABLE 2).

Experiment [3] has as its target T3, GST-AF6 PDZ domain fusion protein (UniProt P55196 1001-1093).
T3 construct: domain: PDZ domain 1 (of 1); AA numbers count on the GenBank entry; also called af-6 protein; not shown: glutathione-S transferase (GST) as encoded by vector pGEX-3X (Pharmacia)
T3 sequence: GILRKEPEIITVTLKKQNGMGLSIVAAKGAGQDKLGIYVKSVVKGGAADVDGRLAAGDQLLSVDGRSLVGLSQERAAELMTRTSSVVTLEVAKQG
Put plainly: A/G plate assay (TABLE 2).

For experiment [4], the target named is T4, GST-TIAM1 PDZ domain fusion protein (UniProt Q13009 844-931).
T4 construct: domain: PDZ 1 (of 1); AA numbers count on the GenBank entry; also called T-lymphoma invasion and metastasis inducing protein 1; not shown: glutathione-S transferase (GST) as encoded by vector pGEX-3X (Pharmacia)
Briefly: A/G plate assay (TABLE 2).

The target in experiment [5] is T5, GST-KIAA0303 PDZ domain fusion protein (UniProt O15021 1139-1229).
T5 construct: domain: PDZ domain 1 (of 1); AA numbers count on the GenBank entry; also called K303; not shown: glutathione-S transferase (GST) as encoded by vector pGEX-3X (Pharmacia)
T5 sequence: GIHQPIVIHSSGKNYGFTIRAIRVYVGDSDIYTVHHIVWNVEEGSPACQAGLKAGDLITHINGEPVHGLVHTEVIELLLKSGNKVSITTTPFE
Put plainly: A/G plate assay (TABLE 2).

The target of experiment [6] is T6, GST-MPP1 PDZ domain fusion protein (UniProt Q00013 67-152).
T6 construct: domain: PDZ domain 1 (of 1); AA numbers count on the GenBank entry; also called 55 Kd erythrocyte membrane protein; not shown: glutathione-S transferase (GST) as encoded by vector pGEX-3X (Pharmacia)
T6 sequence: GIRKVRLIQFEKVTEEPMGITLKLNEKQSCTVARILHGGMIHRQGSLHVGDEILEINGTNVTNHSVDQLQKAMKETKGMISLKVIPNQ
Briefly: A/G plate assay (TABLE 2).

Experiment [7] addresses T1, GST-PSD95 PDZ domains 1-3 fusion protein. Briefly: G assay, biotinylated peptide titrated on plate-bound GST-PDZ, saturation fit (apparent affinity).
For experiment [8], the target named is T7, GST-PTN-4 PDZ domain fusion protein (UniProt P29074 516-604).
T7 construct: domain: PDZ domain 1 (of 1); AA numbers count on the GenBank entry; also called protein-tyrosine phosphatase meg1; not shown: glutathione-S transferase (GST) as encoded by vector pGEX-3X (Pharmacia)
T7 sequence: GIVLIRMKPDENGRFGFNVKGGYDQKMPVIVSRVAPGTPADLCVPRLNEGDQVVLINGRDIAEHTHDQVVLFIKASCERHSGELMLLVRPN
Put plainly: A/G plate assay (TABLE 2).

The target in experiment [9] is T8, GST-prIL16 PDZ domains 1-2 fusion protein (UniProt Q14005 1111-1324).
T8 construct: domain: PDZ domain 1-2 (of 2); AA numbers count on the GenBank entry; also called putative interleukin 16 precursor; not shown: glutathione-S transferase (GST) as encoded by vector pGEX-3X (Pharmacia)
T8 sequence: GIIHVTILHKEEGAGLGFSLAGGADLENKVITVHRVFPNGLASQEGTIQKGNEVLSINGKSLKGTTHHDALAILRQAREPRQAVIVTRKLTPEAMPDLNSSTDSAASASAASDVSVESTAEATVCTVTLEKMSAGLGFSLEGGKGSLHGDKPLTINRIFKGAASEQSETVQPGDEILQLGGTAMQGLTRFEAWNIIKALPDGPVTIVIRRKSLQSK
Briefly: A/G plate assay (TABLE 2).

T1 sequence (P78352 other isoform, or with tags, fused parts or gaps): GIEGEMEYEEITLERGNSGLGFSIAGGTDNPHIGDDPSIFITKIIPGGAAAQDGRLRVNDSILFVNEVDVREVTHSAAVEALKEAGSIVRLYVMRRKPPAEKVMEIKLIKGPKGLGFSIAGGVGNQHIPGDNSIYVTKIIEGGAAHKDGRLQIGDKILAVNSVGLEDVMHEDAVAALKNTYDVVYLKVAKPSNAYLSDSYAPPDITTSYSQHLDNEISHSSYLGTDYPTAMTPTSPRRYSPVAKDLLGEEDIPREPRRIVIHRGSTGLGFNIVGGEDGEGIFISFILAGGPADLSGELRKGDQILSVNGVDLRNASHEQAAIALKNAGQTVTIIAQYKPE
T4 sequence (Q13009 other isoform, or with tags, fused parts or gaps): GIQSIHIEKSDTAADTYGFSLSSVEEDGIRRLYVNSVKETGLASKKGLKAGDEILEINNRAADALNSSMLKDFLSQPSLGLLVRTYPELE

As to Biotin-KKGTYLTDETHREVKFTSL [CD46 (Form 1) C-terminal PL peptide AA10L], the binding result in experiment [1] is on record as “binds”.
Consider Biotin-SSKSKSSEESQTFFGLYKL (also called FAS Ligand) [FasL C-terminal PL peptide AA23L-M], for which, in experiment [2], the binding result is “binds”.
Consider Biotin-SVFSIPTLWSPWPPSSSSQL (also called CD3-eta; CD3-η) [CD3n C-terminal PL peptide AA4L], for which, in [1], the binding result is reported as “binds”.
Take Biotin-TREDIYVNYPTFSRRPKTRV [DNAM-1 C-terminal PL peptide AA22L]: the binding result in [3] and in experiment [1] was “binds” each time.
In the case of Biotin-ARKANMKGSYSLVEAQKSKV [VCAM1 C-terminal PL peptide AA17L], the binding result in experiment [4], in experiment [5] and in experiment [6] was “binds” throughout.
For Biotin-QGDPALQDAGDSSRKEYFI (also called GC) [Glycophorin C C-terminal PL peptide AA37L], the binding result in experiment [3] is recorded as “binds”; in [6], “no binding”; in experiment [1] it was “binds”.
For the molecule Biotin-SSAKSSNKNKKNKDKEYYV [Neurexin C-terminal PL peptide AA38L], in [6], the binding result was “binds”.
With Biotin-KDSRPSFVGSSSGHTSTTL [CDW128B (IL8RB) C-terminal PL peptide AA29.2L], the binding result in experiment [1] was “binds”.
Regarding Biotin-KDITSDSENSNFRNEIQSLV (also called AAI3L) [CD95 (Fas) C-terminal PL peptide AA13L], the Kd in experiment [7] was 85 µM.
With Biotin-QATSRNGHSARQHVVADTEL [CD34 C-terminal PL peptide AA7L], the binding result in experiment [1] is “binds”.
Regarding Biotin-EVICYIEKPGVETLEDSVF [CDW125 (IL5R) C-terminal PL peptide AA28L], in experiment [8], the binding result is recorded as “binds”.
As to Biotin-TTNNNPNSAVNIKKIFTDV [KV1.3 C-terminal PL peptide AA33L], the binding result in experiment [1] is “binds”.
For the molecule Biotin-QFMTADETRNLQNVDMKIGV [CD44 C-terminal PL peptide AA9L], the binding result in experiment [9] and in [6] was “binds” in each case.
Turning to Biotin-PKQANGGAYQKPTKQEEFYA [CD138 C-terminal PL peptide AA18L], the binding result in [4] is “binds”.
Regarding Biotin-VTSPNKHLGLVTPHKTELV [CD83 C-terminal PL peptide AA47L], the binding result in experiment [1] was “binds”.
